Reference: US12697350B2, “Methods and compositions for treating a premature termination codon-mediated disorder” (Tevard Biosciences, Inc., priority 2019, dated 2026)
Entries after “also recorded” stand apart in the source; their conditions may differ.

System: mouse SCN1A with an Arg(R)-to-TGA PTC (R1407X) and 3×FLAG tag
Experiment: Rescue of full-length SCN1A protein expression, anti-FLAG Western blot, Flp-In-293 cells (FIGS. 37-39)
Assay type: cell-based, human
Text: FIG. 37A is a Western blot depicting rescue of full-length SCN1A protein expression by a suppressor tRNA. Flp-In-293 cells were transfected with an expression construct containing mouse SCN1A with an Arg(R)-to-TGA PTC (R1407X) and a 3×FLAG tag peptide (DYKDHD-G-DYKDHD-I-DYKDDDDK) at the C-terminus (SEQ ID NO: 899) (“SCN1a (R1407*)”) and either (i) co-transfected with an expression construct containing the ArgTCA suppressor tRNA #115 (SEQ ID NO: 18) (“Arg>TGA #115”), or (ii) treated with ataluren at the indicated concentration, (iii) treated with gentamicin at the indication concentration, or (iv) treated with G418 at the indicated concentration. “SCN1a (w.t.)” indicates cells transfected with an expression construct containing wild-type mouse SCN1A and a 3×FLAG tag peptide at the C-terminus (SEQ ID NO: 898). Protein was isolated at 24 hours post transfection and SCN1A was detected using a monoclonal anti-FLAG M2 antibody. Molecular weights based on protein molecular weight markers are indicated to the left of the gel. The intensity of bands corresponding to the size of full-length SCN1A protein was measured using ImageJ and all intensity values were normalized to wild-type SCN1A protein (“SCN1a (w.t.)” lane). Cells co-transfected with expression vectors containing mutant SCN1A and the ArgTCA suppressor tRNA expressed greater than 70% of the full-length SCN1A expressed by cells transfected with an expression construct containing wild-type SCN1A.
FIG. 38A is a Western blot depicting rescue of full-length SCN1A protein expression by suppressor tRNAs. Flp-In-293 cells were co-transfected with (i) an expression construct containing mouse SCN1A with an Arginine-to-TGA PTC (R1407X) and a 3×FLAG tag peptide (DYKDHD-G-DYKDHD-I-DYKDDDDK) at the C-terminus (SEQ ID NO: 899) (“SCN1a (R1407*)”) and (ii) either the #104 ArgTCA suppressor tRNA (SEQ ID NO: 6) (“Sup #104”), the #106 ArgTCA suppressor tRNA (SEQ ID NO: 8) (“Sup #106”), or the ArgTCA suppressor tRNA #115 (SEQ ID NO: 18) (“Sup #115”). “SCN1a (w.t.)” indicates cells transfected with an expression construct containing wild-type mouse SCN1A and a 3×FLAG tag peptide at the C-terminus (SEQ ID NO: 898). Protein was isolated at 24 hours post transfection and SCN1A was detected using a monoclonal anti-FLAG M2 antibody. Molecular weights based on protein molecular weight markers are indicated to the left of the gel. The intensity of bands corresponding to the size of full-length SCN1A protein was measured using ImageJ and all intensity values were normalized to wild-type SCN1A protein (“SCN1a (w.t.)” lane). Cells co-transfected with expression vectors containing mutant SCN1A and the ArgTCA suppressor tRNA expressed greater than 30% (Sup #104), greater than 60% (Sup #106), or greater than 70% (Sup #115) of the full-length SCN1A expressed by cells transfected with an expression construct containing wild-type SCN1A.
FIG. 39A is a Western blot depicting rescue of full-length SCN1A protein expression by a suppressor tRNA. Flp-In-293 cells were cultured in 6-well cell culture plates and co-transfected with (i) an expression construct containing mouse SCN1A with an Arginine-to-TGA PTC (R1407X) and a 3×FLAG tag peptide (DYKDHD-G-DYKDHD-I-DYKDDDDK) at the C-terminus (SEQ ID NO: 899) (“SCN1a (R1407*)”) and (ii) the ArgTCA suppressor tRNA #115 (SEQ ID NO: 18) (“Arg>TGA #115”) at the indicated concentrations. 1× indicates 400 ng of the ArgTCA suppressor tRNA construct per well, 0.3× indicates 133 ng of the ArgTCA suppressor tRNA construct per well, 0.1× indicates 40 ng of the ArgTCA suppressor tRNA construct per well, and 0.03× indicates 13 ng of the ArgTCA suppressor tRNA construct per well. “SCN1a (w.t.)” indicates cells transfected with an expression construct containing wild-type mouse SCN1A and a 3×FLAG tag peptide at the C-terminus (SEQ ID NO: 898). Protein was isolated at 24 hours post transfection and SCN1A was detected using a monoclonal anti-FLAG M2 antibody. […]

B1: tRNA-Arg-TCT-2-1-TCA-SUP_no intron (nucleic acid)
chain: GGCTCCGTGGCGCAATGGATAGCGCATTGGACTTCAAATTCAAAGGTTCCGGGTTCGAGTCCCGGCGGAGTCG
modifications: chemistry not fully specified
rescue of full-length SCN1A protein expression over dose range (13 to 400 ng suppressor tRNA construct per well, 6-well plate (FIG. 39)): able to rescue full-length SCN1A protein expression over a broad dose range | full-length SCN1A expressed, relative to cells transfected with wild-type SCN1A construct (Flp-In-293, 24 hours post transfection, Western blot band intensity (ImageJ) normalized to wild-type SCN1A): greater than 70% | rescue of full-length SCN1A protein expression (Flp-In-293, SCN1A R1407X-3×FLAG, Western blot, 24 hours post transfection): able to rescue full-length SCN1A protein expression; also recorded: rescued full-length SCN1A protein expression
